Assay results published in article PMC6341108, “Anti-LRP5/6 VHHs promote differentiation of Wnt-hypersensitive intestinal stem cells” (Nature Communications, 2019).
Several values for one entry are separate records, joined by “and”; a condition that tells them apart may be missing. Equal values may be shown once.

Key:
[1] = biological target: LRP6 P3E3P4E4 (Homo sapiens) (UniProt O75581); settings: cited from earlier work
[2] = biological target: LRP6 P1E1P2E2 (Homo sapiens) (UniProt O75581); settings: cited from earlier work
LRP6 P1E1P2E2 (Homo sapiens), sequence (O75581 20-630): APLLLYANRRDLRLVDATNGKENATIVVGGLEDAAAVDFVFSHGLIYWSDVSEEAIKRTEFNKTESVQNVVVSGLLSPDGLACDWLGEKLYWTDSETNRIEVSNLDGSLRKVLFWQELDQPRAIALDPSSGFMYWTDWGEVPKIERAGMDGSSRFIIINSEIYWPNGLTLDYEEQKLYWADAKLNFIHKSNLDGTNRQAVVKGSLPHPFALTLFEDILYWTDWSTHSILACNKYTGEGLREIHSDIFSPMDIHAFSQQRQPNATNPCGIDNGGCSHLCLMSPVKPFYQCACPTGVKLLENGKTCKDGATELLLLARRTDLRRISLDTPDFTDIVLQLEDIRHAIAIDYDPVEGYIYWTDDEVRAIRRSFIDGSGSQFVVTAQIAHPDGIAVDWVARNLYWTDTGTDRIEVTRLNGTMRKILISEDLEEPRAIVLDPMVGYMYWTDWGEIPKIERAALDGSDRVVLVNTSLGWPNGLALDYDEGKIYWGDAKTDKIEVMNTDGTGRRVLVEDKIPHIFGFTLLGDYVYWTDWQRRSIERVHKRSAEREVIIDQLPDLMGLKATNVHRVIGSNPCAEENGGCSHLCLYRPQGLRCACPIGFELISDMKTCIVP

[3] = biological target: T1, human LRP6 β-propeller-EGF modules P3E3P4E4 (Homo sapiens); assay: quartz crystal microbalance (QCM); LRP6 P3E3P4E4 immobilised by amine coupling on an Attana LNB chip; VHH injected at four rising concentrations (single cycle kinetics); 22 °C, HBS-T, 25 µL/min; 1:1 fitting model; settings: both partners purified
T1 construct: Low-density lipoprotein receptor-related protein 6 (LRP6), human, domains P3E3P4E4; the methods say Uniprot residues 639-1244, the results say UNIPROT residues 629-1244; Expressed from pUPE107.03 with an N-terminal cystatin secretion signal; also called LRP6^P3E3P4E4; LRP6 P3E3P4E4; source: HEK293 GnTI- cells, transiently co-expressed with human MESD, secreted, purified (Ni-Sepharose excel, SEC …)
T1 chain: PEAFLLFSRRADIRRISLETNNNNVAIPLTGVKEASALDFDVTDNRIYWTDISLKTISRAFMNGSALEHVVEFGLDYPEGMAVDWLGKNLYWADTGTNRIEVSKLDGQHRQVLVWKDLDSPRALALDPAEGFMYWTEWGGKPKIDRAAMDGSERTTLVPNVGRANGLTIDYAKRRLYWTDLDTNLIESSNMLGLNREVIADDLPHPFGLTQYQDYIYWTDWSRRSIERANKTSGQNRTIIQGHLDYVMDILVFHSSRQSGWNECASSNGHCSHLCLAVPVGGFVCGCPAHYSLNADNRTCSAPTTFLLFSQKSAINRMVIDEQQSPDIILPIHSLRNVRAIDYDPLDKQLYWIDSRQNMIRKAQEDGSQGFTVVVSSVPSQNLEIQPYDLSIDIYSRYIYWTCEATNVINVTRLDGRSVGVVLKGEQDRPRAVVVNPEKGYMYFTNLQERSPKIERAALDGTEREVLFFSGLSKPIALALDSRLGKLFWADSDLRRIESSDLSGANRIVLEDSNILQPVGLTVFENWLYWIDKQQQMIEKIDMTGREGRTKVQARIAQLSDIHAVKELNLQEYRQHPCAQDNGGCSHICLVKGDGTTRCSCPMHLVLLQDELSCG

[4] = biological target: T2, human LRP6 β-propeller-EGF modules P3E3P4E4 (human, UniProt O75581 639-1244); assay: ITC
T2 chain: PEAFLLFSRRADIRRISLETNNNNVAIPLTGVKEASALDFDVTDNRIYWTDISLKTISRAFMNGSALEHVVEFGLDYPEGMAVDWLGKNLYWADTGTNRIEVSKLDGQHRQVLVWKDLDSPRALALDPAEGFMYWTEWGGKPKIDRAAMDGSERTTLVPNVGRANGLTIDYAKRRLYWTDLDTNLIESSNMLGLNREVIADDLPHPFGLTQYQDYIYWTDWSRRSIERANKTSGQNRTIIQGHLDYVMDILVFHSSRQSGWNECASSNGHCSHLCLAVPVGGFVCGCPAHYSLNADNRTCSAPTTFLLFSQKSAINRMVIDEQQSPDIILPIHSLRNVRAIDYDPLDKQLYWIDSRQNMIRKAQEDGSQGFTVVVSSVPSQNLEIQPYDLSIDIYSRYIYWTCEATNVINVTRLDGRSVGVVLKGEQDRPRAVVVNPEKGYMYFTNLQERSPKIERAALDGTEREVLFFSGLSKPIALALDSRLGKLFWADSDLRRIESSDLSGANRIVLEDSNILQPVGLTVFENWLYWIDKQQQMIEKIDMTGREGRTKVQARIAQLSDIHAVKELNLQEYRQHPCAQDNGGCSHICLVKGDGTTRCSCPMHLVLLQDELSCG

[5] = biological target: T3, human LRP6 β-propeller-EGF modules P3E3P4E4 (Homo sapiens); assay: ITC; 10 µM LRP6^P3E3P4E4 in the cell, 100 µM VHH injected, DPBS, 25 °C, triplicate; settings: both partners purified
T3 construct: low-density lipoprotein receptor-related protein 6 (LRP6), human, domains P3E3P4E4; methods: Uniprot residues 639-1244; results: residues UNIPROT 629-1244; Vector pUPE107.03 with an N-terminal cystatin secretion signal; A second construct with a C-terminal BAP-tag followed by His6 (biotinylated by Bir-A) was used for the CIS display selection and the ELISA screening only; also called …
T3 chain: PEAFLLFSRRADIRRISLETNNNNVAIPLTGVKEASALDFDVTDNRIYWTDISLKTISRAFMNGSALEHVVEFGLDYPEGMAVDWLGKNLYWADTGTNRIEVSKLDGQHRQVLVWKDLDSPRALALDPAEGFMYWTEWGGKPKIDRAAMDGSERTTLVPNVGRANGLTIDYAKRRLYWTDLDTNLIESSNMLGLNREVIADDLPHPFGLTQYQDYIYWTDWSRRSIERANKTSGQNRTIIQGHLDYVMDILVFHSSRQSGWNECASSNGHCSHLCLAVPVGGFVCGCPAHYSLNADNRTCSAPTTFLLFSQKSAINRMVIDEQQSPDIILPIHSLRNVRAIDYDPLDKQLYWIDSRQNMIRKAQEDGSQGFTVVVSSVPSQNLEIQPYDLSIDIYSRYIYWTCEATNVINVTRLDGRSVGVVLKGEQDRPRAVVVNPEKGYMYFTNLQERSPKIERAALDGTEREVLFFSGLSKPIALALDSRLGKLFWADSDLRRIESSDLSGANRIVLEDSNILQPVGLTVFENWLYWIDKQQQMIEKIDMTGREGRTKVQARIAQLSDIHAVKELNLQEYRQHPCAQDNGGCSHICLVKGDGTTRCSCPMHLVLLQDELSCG

[6] = biological target: T3, human LRP6 β-propeller-EGF modules …; assay: cell-based or functional assay
[7] = biological target: T3, human LRP6 β-propeller-EGF modules …; assay: quartz crystal microbalance (QCM); LRP6^P3E3P4E4 immobilised by amine coupling on an Attana LNB chip; VHHs injected (0.03-0.25 µg/mL) in HBS-T, single-cycle kinetics, 22 °C, 1:1 fitting model; settings: both partners purified
[8] = biological target: T4, human LRP6 β-propeller-EGF modules P3E3P4E4 (Homo sapiens); assay: ITC; 10 µM LRP6 P3E3P4E4 in the sample cell, 100 µM VHH injected, DPBS, 25 °C; triplicate; settings: both partners purified
T4 construct: low-density lipoprotein receptor-related protein 6 (LRP6), human, domains P3E3P4E4; Cloned with an N-terminal cystatin secretion signal; also called LRP6^P3E3P4E4; LRP6 P3E3P4E4; source: HEK293 GnTI- cells, transiently co-expressed with human MESD, secreted, purified (Ni-Sepharose excel, SEC)
T4 chain: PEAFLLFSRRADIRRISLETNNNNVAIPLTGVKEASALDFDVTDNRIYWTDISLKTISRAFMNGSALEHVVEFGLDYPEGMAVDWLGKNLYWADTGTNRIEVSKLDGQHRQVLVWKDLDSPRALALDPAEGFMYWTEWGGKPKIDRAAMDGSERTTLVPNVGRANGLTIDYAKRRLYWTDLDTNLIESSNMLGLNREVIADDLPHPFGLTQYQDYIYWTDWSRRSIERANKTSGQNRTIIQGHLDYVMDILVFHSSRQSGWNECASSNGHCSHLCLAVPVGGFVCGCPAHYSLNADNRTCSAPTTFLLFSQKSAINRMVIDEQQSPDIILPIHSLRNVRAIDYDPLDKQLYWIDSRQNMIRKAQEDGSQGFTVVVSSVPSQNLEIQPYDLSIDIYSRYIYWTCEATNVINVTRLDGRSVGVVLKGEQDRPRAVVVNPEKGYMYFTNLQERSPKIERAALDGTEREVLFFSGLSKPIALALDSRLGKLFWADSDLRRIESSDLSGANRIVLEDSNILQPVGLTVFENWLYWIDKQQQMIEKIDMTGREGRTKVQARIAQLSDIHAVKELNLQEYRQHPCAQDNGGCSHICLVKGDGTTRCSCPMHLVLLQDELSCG

LRP6 P3E3P4E4 (Homo sapiens), sequence (O75581 631-1246): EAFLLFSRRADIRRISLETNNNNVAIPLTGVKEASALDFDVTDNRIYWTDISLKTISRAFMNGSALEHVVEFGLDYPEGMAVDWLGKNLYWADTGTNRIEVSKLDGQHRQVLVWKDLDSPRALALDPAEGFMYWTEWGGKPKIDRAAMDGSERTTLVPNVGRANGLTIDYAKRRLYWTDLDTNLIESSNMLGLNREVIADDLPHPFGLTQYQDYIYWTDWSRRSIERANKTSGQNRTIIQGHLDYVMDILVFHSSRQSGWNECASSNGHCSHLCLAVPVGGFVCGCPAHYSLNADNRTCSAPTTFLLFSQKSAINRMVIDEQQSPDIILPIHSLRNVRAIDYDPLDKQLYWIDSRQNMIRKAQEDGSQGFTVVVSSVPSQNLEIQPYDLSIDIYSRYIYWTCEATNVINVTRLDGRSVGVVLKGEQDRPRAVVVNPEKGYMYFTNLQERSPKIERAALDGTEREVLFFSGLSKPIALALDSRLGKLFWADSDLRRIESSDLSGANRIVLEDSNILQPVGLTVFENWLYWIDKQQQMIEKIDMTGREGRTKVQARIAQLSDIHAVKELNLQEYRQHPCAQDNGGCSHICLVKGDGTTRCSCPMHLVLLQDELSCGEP

DKK1 DKK1_C (from UniProt O94907)
Kd [1]: 70 nM
Kd [2]: 70 nM

B1: anti-LRP6 VHH L-P2-H07, C-terminal V5-FLAG3-His6-tagged (VHH)
VHH: EVQLQESGGGLVQAGGSLRLSCAASGDIISSYRMGWFRQAPGKEREFVSDITPSIGHTYYADSVKGRFTISRDNAKNTVYLQMNSLKPEDTAVYYCRAVDRSYRYPYEYWGQGTQVTVSS
notes: Selected by CIS display from a fully synthetic VHH library; No structure of its complex was deposited; source: E. coli BL21 Gold, purified (IMAC, SEC Superdex 75); not shown: V5, C-terminal, kept; FLAG3, C-terminal, kept; His6, C-terminal, kept
Kd [3]: 2.3 nM
koff [3]: 0.00018 s⁻¹
kon [3]: 81000 M⁻¹ s⁻¹
Kd [4]: 17.5 nM

B2: anti-LRP6 VHH L-P2-B10 with C-terminal V5-FLAG3-His6-tag (VHH)
VHH: EVQLQESGGCLVQAGGSLRLSCAASGSTFSTYTIGWFRQAPGKEREFVAAIHWDGGQTYYADSVKGRFTISRDNAKNTVYLQMNSLKPEDTAVYYCAARGRRYFDFTYSDVYDYWGQGTQVTVSS
notes: Selected by CIS display from a fully synthetic VHH library; also called anti-LRP6^P3E3P4E4 VHH; anti-LRP5/6^P3 VHH; source: E. coli BL21 (BL21-Gold), purified (IMAC, SEC Superdex 75); not shown: V5, C-terminal, kept; FLAG3, C-terminal, kept; His6, C-terminal, kept
Kd [5]: < 40 nM
stoichiometry N [5]: 1
IC50 of inhibition of cellular responses to Wnt3a (Wnt luciferase reporter, HEK293T); blocks Wnt3a with LRP6 [6]: 82 nM
IC50 of inhibition of cellular responses to the combination of Wnt3a and R-spondin1 (Wnt luciferase reporter, HEK293T); blocks Wnt3a with LRP6 [6]: 40 nM
koff [7]: ~0.0001 s⁻¹
kon [7]: ~100000 M⁻¹ s⁻¹
Kd [4]: 12.8 nM

B3: anti-LRP6 VHH L-P2-B10, C-terminal V5-FLAG3-His6-tagged (VHH)
VHH: EVQLQESGGCLVQAGGSLRLSCAASGSTFSTYTIGWFRQAPGKEREFVAAIHWDGGQTYYADSVKGRFTISRDNAKNTVYLQMNSLKPEDTAVYYCAARGRRYFDFTYSDVYDYWGQGTQVTVSS
notes: also in the deposited structure of the complex with LRP6 P3E3P4E4; Selected by CIS display from a fully synthetic VHH library; source: E. coli BL21 Gold, purified (IMAC, SEC Superdex 75); not shown: V5, C-terminal, kept; FLAG3, C-terminal, kept; His6, C-terminal, kept
Kd [3]: 0.8 nM
koff [3]: 0.00014 s⁻¹
kon [3]: 180000 M⁻¹ s⁻¹

B4: anti-LRP6 VHH L-P2-D07, C-terminal V5-FLAG3-His6-tagged (VHH)
VHH: EVQLQESGGGLVQAGGSLRLSCAASGRTFSIYTIGWFRQAPGKEREFVAEITWSGGSTYYADSVKGRFTISRDNAKNTVYLQMNSLKPEDTAVYYCAAITYTRGIYKYWGQGTQVTVSS
notes: also in the deposited structure of the complex with LRP6 P3E3P4E4; Selected by CIS display from a fully synthetic VHH library; also called L-P2-D07-V5-Flag3-His6; source: E. coli BL21 Gold, purified (IMAC, SEC Superdex 75); not shown: V5, C-terminal, kept; FLAG3, C-terminal, kept; His6, C-terminal, kept
Kd [3]: 0.4 nM
koff [3]: 0.00015 s⁻¹
kon [3]: 370000 M⁻¹ s⁻¹

B5: anti-LRP6 VHH L-P2-D07 with C-terminal V5-FLAG3-His6-tag (VHH)
VHH: EVQLQESGGGLVQAGGSLRLSCAASGRTFSIYTIGWFRQAPGKEREFVAEITWSGGSTYYADSVKGRFTISRDNAKNTVYLQMNSLKPEDTAVYYCAAITYTRGIYKYWGQGTQVTVSS
notes: as for B2
Kd [5]: < 40 nM
stoichiometry N [5]: 1
IC50 of inhibition of cellular responses to Wnt3a (Wnt luciferase reporter, HEK293T); blocks Wnt3a with LRP6 [6]: 94 nM
IC50 of inhibition of cellular responses to the combination of Wnt3a and R-spondin1 (Wnt luciferase reporter, HEK293T); blocks Wnt3a with LRP6 [6]: 40 nM
koff [7]: ~0.0001 s⁻¹
kon [7]: ~100000 M⁻¹ s⁻¹

B6: anti-LRP6 VHH L-P2-B10 (VHH)
VHH: EVQLQESGGCLVQAGGSLRLSCAASGSTFSTYTIGWFRQAPGKEREFVAAIHWDGGQTYYADSVKGRFTISRDNAKNTVYLQMNSLKPEDTAVYYCAARGRRYFDFTYSDVYDYWGQGTQVTVSS
notes: they are in the deposited structure of its complex with LRP6 P3E3P4E4 (PDB 6H15 or 6H16); Selected by CIS display from a fully synthetic VHH library; source: E. coli BL21, purified (IMAC, SEC); not shown: V5, C-terminal, kept; FLAG3, C-terminal, kept; His6, C-terminal, kept
Kd [8]: 14.5 nM and 11.9 nM and 12.2 nM
stoichiometry N [8]: 1.09 and 1.08 and 1.15

B7: anti-LRP6 VHH L-P2-D07 (VHH)
VHH: EVQLQESGGGLVQAGGSLRLSCAASGRTFSIYTIGWFRQAPGKEREFVAEITWSGGSTYYADSVKGRFTISRDNAKNTVYLQMNSLKPEDTAVYYCAAITYTRGIYKYWGQGTQVTVSS
notes: as for B6
Kd [8]: 30.3 nM and 35.7 nM and 29.4 nM
stoichiometry N [8]: 0.921 and 0.893 and 0.881
